Laboratory results published in US20220259327A1 (published 2022).

T1: cyCD19 ECD (cynomolgus, UniProt A0A2K5W8L9 20-292)
T1 construct: extracellular domain; also called cynomolgus CD19 extracellular domain
T1 sequence: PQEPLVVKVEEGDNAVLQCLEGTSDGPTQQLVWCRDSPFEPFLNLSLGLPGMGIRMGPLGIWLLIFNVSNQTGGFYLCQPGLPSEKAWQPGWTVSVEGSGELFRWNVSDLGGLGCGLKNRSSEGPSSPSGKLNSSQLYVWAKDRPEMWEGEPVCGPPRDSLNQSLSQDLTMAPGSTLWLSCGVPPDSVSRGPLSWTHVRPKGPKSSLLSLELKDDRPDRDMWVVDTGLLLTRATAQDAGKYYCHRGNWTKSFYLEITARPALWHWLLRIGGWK


These binders were tested against T1, cyCD19 ECD (assay: binding to cyCD19 ECD, method not stated).

| EC50 [µg/mL] | Binder |
| --- | --- |
| 0.313 | wild-type humanized anti-human CD19 antibody (var.0) (antibody, V domains shown) VH: QVQLVQSGAEVKKPGASVKVSCKASGYTFTDYIMHWVRQAPGQGLEWMGYINPYNDGSKYTEKFNGKATMTSDTSISTAYMELSRLRSDDTAVYYCARGTYYYGSALFDYWGQGTTVTVSS VL: DIVMTQTPLSLSVTPGQPASISCKSSQSLENSNGNTYLNWYLQKPGQSPQLLIYRVSKRFSGVPDRFSGSGSGTDFTLKISRVEAEDVGVYYCLQLTHVPYTFGQGTKLEIK |
| 0.435 | humanized anti-human CD19 antibody var.9 (S27eP/N28S) (antibody, V domains shown) VH: QVQLVQSGAEVKKPGASVKVSCKASGYTFTDYIMHWVRQAPGQGLEWMGYINPYNDGSKYTEKFQGRVTMTSDTSISTAYMELSRLRSDDTAVYYCARGTYYYGSALFDYWGQGTTVTVSS VL: DIVMTQTPLSLSVTPGQPASISCKSSQSLENPSGNTYLNWYLQKPGQSPQLLIYRVSKRFSGVPDRFSGSGSGTDFTLKISRVEAEDVGVYYCLQLTHVPYTFGQGTKLEIK |
| 0.255 | humanized anti-human CD19 antibody var.5 (S27eP), named clone 8B8-018 (antibody, V domains shown, also called variant 5) VH: QVQLVQSGAEVKKPGASVKVSCKASGYTFTDYIMHWVRQAPGQGLEWMGYINPYNDGSKYTEKFQGRVTMTSDTSISTAYMELSRLRSDDTAVYYCARGTYYYGSALFDYWGQGTTVTVSS VL: DIVMTQTPLSLSVTPGQPASISCKSSQSLENPNGNTYLNWYLQKPGQSPQLLIYRVSKRFSGVPDRFSGSGSGTDFTLKISRVEAEDVGVYYCLQLTHVPYTFGQGTKLEIK |
